Source: patent US10941197 (dated 2021)
Residue numbers refer to the chain shown, from its start.

T1: cyno OSM (cynomolgus)
T1 chain: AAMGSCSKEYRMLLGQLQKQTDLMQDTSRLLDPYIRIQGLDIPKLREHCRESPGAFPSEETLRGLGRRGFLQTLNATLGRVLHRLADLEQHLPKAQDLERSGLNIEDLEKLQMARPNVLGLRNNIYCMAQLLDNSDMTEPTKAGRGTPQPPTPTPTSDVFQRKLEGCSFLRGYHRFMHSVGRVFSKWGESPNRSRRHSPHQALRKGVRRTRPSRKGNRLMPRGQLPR

T2: human OSM (human)
T2 chain: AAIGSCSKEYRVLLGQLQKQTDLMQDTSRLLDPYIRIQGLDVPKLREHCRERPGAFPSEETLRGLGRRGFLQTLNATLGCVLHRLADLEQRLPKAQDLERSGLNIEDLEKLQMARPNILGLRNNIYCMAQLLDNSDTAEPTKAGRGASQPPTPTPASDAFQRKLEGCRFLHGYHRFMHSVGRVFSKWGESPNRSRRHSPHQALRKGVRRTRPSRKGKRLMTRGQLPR

B1: M71 (designed binder)
chain 1: EVQLVQSGAEVKKPGESLKISCKGSGYSFTSYWISWVRQMPGKGLEWMGIIYPGDSYTRYSPSFQGQVTISADKSISTAYLQWSSLKASDTAMYYCARVPVSPAYLDY
chain 2: not shown
B2: M64 (designed binder)
chain 1: B1 chain 1
chain 2: not shown
B3: M55 (designed binder)
chain 1: B1 chain 1 with V99G, P100S, S102F, P103E, L106F
chain 2: not shown
B4: M42 (designed binder)
chain 1: B1 chain 1 with V99G, P100S, S102F, P103E, L106F
chain 2: not shown
B5: M69 (designed binder)
chain 1: B1 chain 1
chain 2: not shown
B6: M54 (designed binder)
chain 1: B1 chain 1 with V99G, P100S, S102F, P103E, L106F
chain 2: not shown

Target: T1, cyno OSM
Assay: SPR

| Kd [nM] | Binder |
| --- | --- |
| 0.108 | B1 |
| 0.023 | B2 |
| 0.058 | B3 |
| 0.516 | B4 |
| 0.062 | B5 |
| 0.057 | B6 |

Target: T2, human OSM
Assay: SPR

| Kd [nM] | Binder |
| --- | --- |
| 0.105 | B1 |
| 0.095 | B2 |
| 0.054 | B3 |
| 0.484 | B4 |
| 0.045 | B5 |
| 0.053 | B6 |
